From paper PMC2621155

Biological target: rapsyn, endogenous in C2C12 myotubes (mouse (endogenous in C2C12)) (UniProt P12672)
Assay: co-IP; C2C12 myotube lysates, anti-rapsyn antibody and protein A agarose beads, blot for α-actinin; myotubes untreated, with agrin 10 ng/ml 18 hr, with agrin and STI-571, or with agrin and then 10 μM carbachol for 4 hr

Chain of UniProt P12672 (P12672 whole entry): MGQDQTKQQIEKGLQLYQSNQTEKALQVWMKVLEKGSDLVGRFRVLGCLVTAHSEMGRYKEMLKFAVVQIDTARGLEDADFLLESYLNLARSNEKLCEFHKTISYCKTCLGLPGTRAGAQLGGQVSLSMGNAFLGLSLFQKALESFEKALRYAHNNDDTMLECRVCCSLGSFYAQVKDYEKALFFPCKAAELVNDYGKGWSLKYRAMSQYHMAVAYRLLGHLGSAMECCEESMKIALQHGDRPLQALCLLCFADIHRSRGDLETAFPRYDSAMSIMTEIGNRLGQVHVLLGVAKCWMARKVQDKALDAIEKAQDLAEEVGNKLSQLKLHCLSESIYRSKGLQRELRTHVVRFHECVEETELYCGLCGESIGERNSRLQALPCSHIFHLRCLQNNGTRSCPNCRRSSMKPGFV

- fold increase of the co-precipitation in agrin-treated against untreated myotubes: 6 to 10 fold
Substance: α-actinin, endogenous in myotubes (from UniProt Q9JI91 1-894) (natural protein)
